Measurements: patent US20190309079A1 (Regeneron, published 2019)

How the values were obtained:
[1] = molecular target: T1, full length human LEPR (amino acids 1-1165 of P48357, Isoform B) on cells (human, UniProt P48357 22-1165); assay: cell-based or functional assay
T1 sequence: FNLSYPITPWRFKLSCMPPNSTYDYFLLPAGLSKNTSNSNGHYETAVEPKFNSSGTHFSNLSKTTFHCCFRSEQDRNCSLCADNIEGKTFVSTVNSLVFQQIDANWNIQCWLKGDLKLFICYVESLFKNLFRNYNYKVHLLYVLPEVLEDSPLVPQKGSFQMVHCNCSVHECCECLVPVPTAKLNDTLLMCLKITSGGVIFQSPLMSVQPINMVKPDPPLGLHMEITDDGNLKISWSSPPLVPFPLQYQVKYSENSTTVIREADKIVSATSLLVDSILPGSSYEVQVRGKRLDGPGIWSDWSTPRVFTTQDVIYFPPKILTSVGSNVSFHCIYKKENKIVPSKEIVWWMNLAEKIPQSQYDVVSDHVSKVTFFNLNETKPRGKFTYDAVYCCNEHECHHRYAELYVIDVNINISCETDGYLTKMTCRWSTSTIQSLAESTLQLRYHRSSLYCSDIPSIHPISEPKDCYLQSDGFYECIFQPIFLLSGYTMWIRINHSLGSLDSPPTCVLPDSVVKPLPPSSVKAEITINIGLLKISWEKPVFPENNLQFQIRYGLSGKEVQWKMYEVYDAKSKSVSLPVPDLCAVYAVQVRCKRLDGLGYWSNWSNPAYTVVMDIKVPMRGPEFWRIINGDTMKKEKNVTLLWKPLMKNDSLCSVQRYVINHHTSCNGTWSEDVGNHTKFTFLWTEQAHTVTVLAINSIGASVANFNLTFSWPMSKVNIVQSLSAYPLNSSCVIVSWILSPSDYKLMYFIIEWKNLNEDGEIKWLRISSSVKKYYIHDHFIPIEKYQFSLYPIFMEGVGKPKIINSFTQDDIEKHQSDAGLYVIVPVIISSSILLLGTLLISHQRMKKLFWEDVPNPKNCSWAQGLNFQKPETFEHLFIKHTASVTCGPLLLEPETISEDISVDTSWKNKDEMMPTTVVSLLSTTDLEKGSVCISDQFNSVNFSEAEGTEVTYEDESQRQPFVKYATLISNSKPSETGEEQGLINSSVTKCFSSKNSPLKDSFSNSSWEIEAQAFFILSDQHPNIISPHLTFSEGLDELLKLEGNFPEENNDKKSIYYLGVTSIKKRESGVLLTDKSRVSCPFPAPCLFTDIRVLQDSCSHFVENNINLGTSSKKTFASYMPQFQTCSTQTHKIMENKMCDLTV

[2] = molecular target: rat LEPR extracellular domain expressed with a C-terminal myc-myc-hexahistidine tag (rLEPR.mmh) (rat, UniProt Q62959 22-839); assay: SPR, captured mAb, 25C and 37C
Method: Equilibrium dissociation constants (KD values) for LEPR binding to purified anti-LEPR monoclonal antibodies were determined using a real-time surface plasmon resonance biosensor using a Biacore 4000 instrument. All binding studies were performed in 10 mM HEPES, 150 mM NaCl, 3 mM EDTA, and 0.05% v/v Surfactant Tween-20, pH 7.4 (HBS-ET) running buffer at 25° C. and 37° C. The Biacore sensor surface was first derivatized by amine coupling with a monoclonal mouse anti-human Fc antibody (GE, # BR-1008-39) to capture anti-LEPR monoclonal antibodies. […] Kinetic association (kₐ) and dissociation (kd) rate constants were determined by fitting the real-time binding sensorgrams to a 1:1 binding model with mass transport limitation using Scrubber 2.0c curve-fitting software. Binding dissociation equilibrium constants (KD) and dissociative half-lives (t½) were calculated from the kinetic rate constants as: […]

[3] = molecular target: T2, extracellular domain of human LEPR (amino acids 22-839 of P48357, Isoform B) with N-terminal myc-myc tag, … (human, UniProt P48357 22-839, GPI anchor at the C-terminus); assay: FACS, 10 nM Ab, HEK293/hLEPR-GPI, 1 uM Leptin
T2 construct: also called HEK293/Mycx2-hLepR(Ecto)-GPI anchored cells
T2 sequence: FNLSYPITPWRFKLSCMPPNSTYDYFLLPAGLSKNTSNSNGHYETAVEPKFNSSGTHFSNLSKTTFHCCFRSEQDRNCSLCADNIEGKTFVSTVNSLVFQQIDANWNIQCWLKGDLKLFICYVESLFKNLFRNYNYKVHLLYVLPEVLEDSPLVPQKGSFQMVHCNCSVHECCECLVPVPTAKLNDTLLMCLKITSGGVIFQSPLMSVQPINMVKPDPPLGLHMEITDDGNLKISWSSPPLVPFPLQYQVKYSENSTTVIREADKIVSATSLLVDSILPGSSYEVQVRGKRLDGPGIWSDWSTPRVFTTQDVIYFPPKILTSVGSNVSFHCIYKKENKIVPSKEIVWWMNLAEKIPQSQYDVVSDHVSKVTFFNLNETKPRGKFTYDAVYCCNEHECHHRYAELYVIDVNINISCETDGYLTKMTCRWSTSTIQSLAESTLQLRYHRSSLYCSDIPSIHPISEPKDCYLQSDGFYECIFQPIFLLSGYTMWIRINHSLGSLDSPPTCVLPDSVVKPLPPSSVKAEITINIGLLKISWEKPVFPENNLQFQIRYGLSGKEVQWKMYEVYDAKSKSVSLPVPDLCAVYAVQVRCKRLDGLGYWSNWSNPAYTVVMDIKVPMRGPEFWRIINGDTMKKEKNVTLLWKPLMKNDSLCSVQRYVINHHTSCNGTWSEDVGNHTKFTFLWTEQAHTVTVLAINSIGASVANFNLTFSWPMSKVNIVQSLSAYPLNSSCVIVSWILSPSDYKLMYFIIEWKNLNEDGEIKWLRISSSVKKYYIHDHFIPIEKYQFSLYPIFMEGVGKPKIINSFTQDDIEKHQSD
Method: (§1) For the FACS analysis, HEK293 parental cells and HEK293/hLEPR-GPI cells were dissociated and plated onto 96-well v-bottom plates at 5×10⁵ cells/well in PBS containing 2% FBS (FACS buffer). […] Cells were subsequently fixed using BD CytoFix™ (Becton Dickinson, #554655), filtered, and analyzed on a HyperCyt Flow Cytometer (Beckman Coulter). Unstained and secondary antibody alone controls were also tested for all cell lines. The results were analyzed using ForeCyt (IntelliCyt) and FlowJo version 10 software to determine the geometric means of fluorescence for viable cells. The geometric mean of fluorescence for each sample was then normalized to the geometric mean of unstained cells to obtain relative binding per condition referred to as “binding ratios”, and these binding ratios were recorded for each antibody tested.

[4] = molecular target: T2, extracellular domain of human LEPR …; assay: FACS, 10 nM Ab, HEK293/hLEPR-GPI, no added Leptin
Method: as §1

Sequence of rat LEPR extracellular domain expressed with a C-terminal myc-myc-hexahistidine tag (rLEPR.mmh) (Q62959 other isoform, or with tags, fused parts or gaps): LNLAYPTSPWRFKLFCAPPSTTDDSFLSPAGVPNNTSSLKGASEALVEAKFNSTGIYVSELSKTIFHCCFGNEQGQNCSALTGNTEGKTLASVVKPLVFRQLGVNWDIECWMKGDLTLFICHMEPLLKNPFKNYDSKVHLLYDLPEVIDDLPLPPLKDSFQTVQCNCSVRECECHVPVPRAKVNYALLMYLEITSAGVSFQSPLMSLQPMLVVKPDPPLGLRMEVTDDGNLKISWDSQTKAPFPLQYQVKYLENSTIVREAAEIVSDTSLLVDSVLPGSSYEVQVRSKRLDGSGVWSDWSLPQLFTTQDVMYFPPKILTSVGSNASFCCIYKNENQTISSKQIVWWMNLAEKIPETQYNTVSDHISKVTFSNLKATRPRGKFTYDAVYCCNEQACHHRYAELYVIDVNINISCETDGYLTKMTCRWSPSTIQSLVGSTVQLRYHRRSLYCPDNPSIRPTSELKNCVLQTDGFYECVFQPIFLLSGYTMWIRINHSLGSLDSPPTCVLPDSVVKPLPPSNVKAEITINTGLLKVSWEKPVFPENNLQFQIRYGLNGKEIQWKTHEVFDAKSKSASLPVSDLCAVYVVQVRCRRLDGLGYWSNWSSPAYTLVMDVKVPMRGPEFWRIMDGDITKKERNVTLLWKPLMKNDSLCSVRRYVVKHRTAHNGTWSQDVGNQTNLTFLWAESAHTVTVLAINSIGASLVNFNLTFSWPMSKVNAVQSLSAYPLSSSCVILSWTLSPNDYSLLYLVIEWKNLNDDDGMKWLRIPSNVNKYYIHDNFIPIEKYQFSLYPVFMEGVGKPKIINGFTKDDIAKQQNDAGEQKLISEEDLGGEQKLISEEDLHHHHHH

B1: H4H16679P2 (antibody, V domains shown)
VH: QVQLVESGGGVVQPGRSLRLSCTASGFTFSSYAMYWVRQAPGKGLEWVSVIYYDGSYKYYADSVKGRFTISRDNSKNTLYLQMDSLRAEDTAVYYCASYNWNYWYFDFWGRGTLVTVSS
VL: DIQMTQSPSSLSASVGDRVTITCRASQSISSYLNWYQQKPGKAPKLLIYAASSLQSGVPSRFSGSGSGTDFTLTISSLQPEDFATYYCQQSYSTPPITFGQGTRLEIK
% activation; IMR-32/LEPR with 200 pM human Leptin [1]: 88%
% activation; IMR-32/LEPR without human Leptin [1]: 65%
EC50 (M); IMR-32/LEPR with 200 pM human Leptin [1]: 7.37e-11 M
EC50 (M); IMR-32/LEPR without human Leptin (STAT3-Luc reporter) [1]: 8.62e-11 M
binding result [2]: no binding (tested: 100 nM)
Binding Ratio (normalized to unstained) [3]: 2220 fold
Binding Ratio (normalized to unstained) [4]: 2060 fold
